Test results reported in article PMC11912836, “Msh2-Msh3 DNA-binding is not sufficient to promote trinucleotide repeat expansions in Saccharomyces cerevisiae”.

Experiments:
[1] = target: Msh2-msh6(3MBD) (Saccharomyces cerevisiae) (UniProt P25847+Q03834); experiment: BLI; conditions: BLI: 25 mM Tris-HCl pH 7.5, 1 mM EDTA, 100 mM NaCl, 0.1 mg/mL BSA, 1 mM DTT, 0.05% Tween-20; DNA 7.5 nM (30 nM for Msh2-Msh6); temperature not stated; no …
Msh2-Msh6 = Msh2-Msh6 (Saccharomyces cerevisiae, UniProt P25847;Q03834 1-964;1-1242); experiment: BLI; BLI: 25 mM Tris-HCl pH 7.5, 1 mM EDTA, 100 mM NaCl, 0.1 mg/mL BSA, 1 mM DTT, 0.05% Tween-20; DNA 7.5 nM (30 nM for Msh2-Msh6); temperature not stated; no nucleotide or Mg2+ listed; conditions: protein: recombinant, copies: 1;1, label: 5' biotin on bottom strand
Msh2-Msh6, sequence (P25847 whole entry, chain 1 of 2): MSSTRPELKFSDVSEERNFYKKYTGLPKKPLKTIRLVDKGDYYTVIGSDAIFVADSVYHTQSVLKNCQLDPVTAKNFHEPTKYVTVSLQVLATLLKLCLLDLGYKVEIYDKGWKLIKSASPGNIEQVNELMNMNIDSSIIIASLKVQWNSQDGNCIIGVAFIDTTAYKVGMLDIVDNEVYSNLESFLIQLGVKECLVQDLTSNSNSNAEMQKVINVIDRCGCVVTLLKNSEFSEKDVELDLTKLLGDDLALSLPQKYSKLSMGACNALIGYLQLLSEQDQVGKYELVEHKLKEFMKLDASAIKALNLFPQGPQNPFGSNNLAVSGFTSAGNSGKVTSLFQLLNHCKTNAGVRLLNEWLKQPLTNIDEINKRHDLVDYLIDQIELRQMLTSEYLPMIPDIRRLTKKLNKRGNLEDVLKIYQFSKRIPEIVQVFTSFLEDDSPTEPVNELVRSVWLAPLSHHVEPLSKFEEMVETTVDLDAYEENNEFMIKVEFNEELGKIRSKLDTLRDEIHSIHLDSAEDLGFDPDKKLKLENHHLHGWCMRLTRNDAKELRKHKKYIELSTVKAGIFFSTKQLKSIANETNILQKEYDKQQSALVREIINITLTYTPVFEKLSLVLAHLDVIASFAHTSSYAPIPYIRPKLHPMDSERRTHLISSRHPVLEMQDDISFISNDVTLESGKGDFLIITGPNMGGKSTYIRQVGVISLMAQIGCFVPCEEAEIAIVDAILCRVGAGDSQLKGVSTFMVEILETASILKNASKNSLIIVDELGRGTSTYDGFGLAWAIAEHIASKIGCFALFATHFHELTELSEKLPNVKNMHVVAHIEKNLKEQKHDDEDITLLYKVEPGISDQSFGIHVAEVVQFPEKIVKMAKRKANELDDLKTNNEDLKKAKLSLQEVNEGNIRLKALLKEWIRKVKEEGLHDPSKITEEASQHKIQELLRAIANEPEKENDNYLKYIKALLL
Msh2-Msh6, sequence (Q03834 whole entry, chain 2 of 2): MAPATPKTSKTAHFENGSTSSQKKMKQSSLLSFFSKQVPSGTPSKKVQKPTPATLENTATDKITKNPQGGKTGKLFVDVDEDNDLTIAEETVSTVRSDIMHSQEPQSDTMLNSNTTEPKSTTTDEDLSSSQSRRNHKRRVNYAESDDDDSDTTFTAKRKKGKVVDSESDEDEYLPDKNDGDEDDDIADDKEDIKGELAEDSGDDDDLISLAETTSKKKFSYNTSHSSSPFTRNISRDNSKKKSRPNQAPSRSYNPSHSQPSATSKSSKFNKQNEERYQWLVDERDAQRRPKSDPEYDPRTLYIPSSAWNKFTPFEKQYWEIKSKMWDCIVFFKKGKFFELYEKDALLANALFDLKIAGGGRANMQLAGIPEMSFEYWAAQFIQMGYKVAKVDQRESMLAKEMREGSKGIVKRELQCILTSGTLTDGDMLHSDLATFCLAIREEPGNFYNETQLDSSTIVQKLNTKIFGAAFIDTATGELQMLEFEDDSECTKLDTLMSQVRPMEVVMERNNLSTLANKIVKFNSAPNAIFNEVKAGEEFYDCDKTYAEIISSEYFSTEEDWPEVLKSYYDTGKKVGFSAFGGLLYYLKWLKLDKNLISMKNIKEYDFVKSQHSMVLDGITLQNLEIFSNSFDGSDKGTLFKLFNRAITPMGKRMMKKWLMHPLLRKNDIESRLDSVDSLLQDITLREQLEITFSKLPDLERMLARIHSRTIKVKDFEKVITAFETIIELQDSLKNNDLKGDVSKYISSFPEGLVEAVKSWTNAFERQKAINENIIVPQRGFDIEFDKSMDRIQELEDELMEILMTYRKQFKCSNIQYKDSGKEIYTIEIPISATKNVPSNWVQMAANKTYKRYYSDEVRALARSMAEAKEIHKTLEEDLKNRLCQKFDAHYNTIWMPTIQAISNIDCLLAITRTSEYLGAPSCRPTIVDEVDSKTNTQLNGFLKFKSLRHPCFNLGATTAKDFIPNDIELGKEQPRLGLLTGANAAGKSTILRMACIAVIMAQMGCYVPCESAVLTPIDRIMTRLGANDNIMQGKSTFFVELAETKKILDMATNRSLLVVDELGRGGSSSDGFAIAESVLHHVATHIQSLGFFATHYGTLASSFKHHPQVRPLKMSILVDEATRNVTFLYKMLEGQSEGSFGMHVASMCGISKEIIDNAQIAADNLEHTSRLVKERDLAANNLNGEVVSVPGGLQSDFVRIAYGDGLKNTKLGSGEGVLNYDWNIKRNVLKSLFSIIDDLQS

Msh2-Msh3 = Msh2-Msh3 (Saccharomyces cerevisiae, UniProt P25847;P25336 1-964;1-1018); experiment: as above; conditions: protein: recombinant, copies: 1;1, label: 5' biotin on bottom strand
Msh2-Msh3, sequence (P25847 whole entry, chain 1 of 2): as the sequence (P25847 whole entry, chain 1 of 2) above
Msh2-Msh3, sequence (P25336 whole entry, chain 2 of 2): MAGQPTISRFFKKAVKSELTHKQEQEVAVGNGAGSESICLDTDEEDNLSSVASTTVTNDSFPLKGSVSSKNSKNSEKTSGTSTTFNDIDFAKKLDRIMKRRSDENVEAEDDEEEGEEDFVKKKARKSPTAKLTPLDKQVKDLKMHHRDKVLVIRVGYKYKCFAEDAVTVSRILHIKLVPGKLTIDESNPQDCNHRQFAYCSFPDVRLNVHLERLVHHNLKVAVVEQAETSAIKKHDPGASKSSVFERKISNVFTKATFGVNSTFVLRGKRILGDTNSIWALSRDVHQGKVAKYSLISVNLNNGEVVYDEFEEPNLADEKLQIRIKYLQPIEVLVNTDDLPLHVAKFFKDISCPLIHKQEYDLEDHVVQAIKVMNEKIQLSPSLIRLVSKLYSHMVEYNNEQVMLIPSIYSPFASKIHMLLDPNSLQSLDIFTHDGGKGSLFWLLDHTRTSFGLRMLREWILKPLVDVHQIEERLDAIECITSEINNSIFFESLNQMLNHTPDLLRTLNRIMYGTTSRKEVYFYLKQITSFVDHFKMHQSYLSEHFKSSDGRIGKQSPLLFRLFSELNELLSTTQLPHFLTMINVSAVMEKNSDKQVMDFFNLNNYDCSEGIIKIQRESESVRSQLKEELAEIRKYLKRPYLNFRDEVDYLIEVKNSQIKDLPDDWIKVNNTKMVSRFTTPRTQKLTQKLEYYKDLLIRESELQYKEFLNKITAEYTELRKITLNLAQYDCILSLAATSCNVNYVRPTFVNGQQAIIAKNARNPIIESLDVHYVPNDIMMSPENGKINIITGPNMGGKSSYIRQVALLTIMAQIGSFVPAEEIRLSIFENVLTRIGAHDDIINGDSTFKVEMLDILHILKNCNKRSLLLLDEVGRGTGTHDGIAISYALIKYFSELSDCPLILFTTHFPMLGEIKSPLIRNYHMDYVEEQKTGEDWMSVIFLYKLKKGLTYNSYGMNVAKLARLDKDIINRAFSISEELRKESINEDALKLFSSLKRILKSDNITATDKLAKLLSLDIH

[2] = as printed, bottom strand has 1 extra nt (T opposite missing A after CTAGG of top; possible misprint), described as homoduplex
[3] = blunt, extrahelical (CAG)10 quasi-hairpin in top strand
[4] = blunt, extrahelical (CTG)10 quasi-hairpin in top strand
[5] = blunt, 8-nt extrahelical loop in top strand

Msh2-msh6(3MBD) (Saccharomyces cerevisiae), sequence (P25847 whole entry, chain 1 of 2): as the sequence (P25847 whole entry, chain 1 of 2) above
Msh2-msh6(3MBD) (Saccharomyces cerevisiae), sequence (Q03834 whole entry, chain 2 of 2): as the sequence (Q03834 whole entry, chain 2 of 2) above

CACGCTACCGAATTCTGACTTGCTAGGCATCTTTGCCCACGTTGACCC / GGGTCAACGTGGGCAAAGATGTCCTAGCAAGTCAGAATTCGGTAGCGTG [Homoduplex (LS1/LS2-Bio)]
Kd [1]: 7.16 nM

CACGCTACCGAATTCTGACTTGCTAGCTGCTGCTGCTGCTGCTGCTGCTGCTGCTGGACATCTTTGCCCACGTTGACCC / GGGTCAACGTGGGCAAAGATGTCCTAGCAAGTCAGAATTCGGTAGCGTG [(CTG)10 (LS-CTG/LS2-Bio)]
Kd [1]: 1.05 nM

CACGCTACCGAATTCTGACTTGCTAGGTGTGTGTGACATCTTTGCCCACGTTGACCC / GGGTCAACGTGGGCAAAGATGTCCTAGCAAGTCAGAATTCGGTAGCGTG [+8 loop, (GT)4 (LS8/LS2-Bio)]
Kd [1]: 0.872 nM

CACGCTACCGAATTCTGACTTGCTAGCAGCAGCAGCAGCAGCAGCAGCAGCAGCAGGACATCTTTGCCCACGTTGACCC / GGGTCAACGTGGGCAAAGATGTCCTAGCAAGTCAGAATTCGGTAGCGTG [(CAG)10 (LS-CAG/LS2-Bio)]
Kd [1]: 2.37 nM

B1: Homoduplex (LS1/LS2-Bio) (dsDNA)
DNA 1: CACGCTACCGAATTCTGACTTGCTAGGCATCTTTGCCCACGTTGACCC
DNA 2: GGGTCAACGTGGGCAAAGATGTCCTAGCAAGTCAGAATTCGGTAGCGTG
Kd (Msh2-Msh6; [2]): 21 nM | Kd (Msh2-Msh3; [2]): 9.22 nM

B2: (CAG)10 (LS-CAG/LS2-Bio) (dsDNA)
DNA 1: CACGCTACCGAATTCTGACTTGCTAGCAGCAGCAGCAGCAGCAGCAGCAGCAGCAGGACATCTTTGCCCACGTTGACCC
DNA 2: GGGTCAACGTGGGCAAAGATGTCCTAGCAAGTCAGAATTCGGTAGCGTG
Kd (Msh2-Msh6; [3]): 2.73 nM | Kd (Msh2-Msh3; [3]): 1.38 nM

B3: (CTG)10 (LS-CTG/LS2-Bio) (dsDNA)
DNA 1: CACGCTACCGAATTCTGACTTGCTAGCTGCTGCTGCTGCTGCTGCTGCTGCTGCTGGACATCTTTGCCCACGTTGACCC
DNA 2: GGGTCAACGTGGGCAAAGATGTCCTAGCAAGTCAGAATTCGGTAGCGTG
Kd (Msh2-Msh6; [4]): 3.07 nM | Kd (Msh2-Msh3; [4]): 2.25 nM

B4: +8 loop, (GT)4 (LS8/LS2-Bio) (dsDNA)
DNA 1: CACGCTACCGAATTCTGACTTGCTAGGTGTGTGTGACATCTTTGCCCACGTTGACCC
DNA 2: GGGTCAACGTGGGCAAAGATGTCCTAGCAAGTCAGAATTCGGTAGCGTG
Kd (Msh2-Msh6; [5]): 8.67 nM | Kd (Msh2-Msh3; [5]): 2.62 nM
